The record followed here is the DeepSol protein solubility set.

The nature of this data set: soluble on expression in E. coli; label from the status in PepcDB or PDB records.
Regarding “MTKRKNASNAGSSPKKEKKSETFAALKSVKAEKRPAADSSDSEPEDFEEEQITHTEAEETRNEDNGQAIYEPDVMRPLIESFLEFLVQRQSETSTVHNMENKVAEWAETRRDDNIDAGLFVLDFRKYLKSAVKFKNLQMNDSCAAISTYLNSEKSLVEYKSMPDRPPTKIQLYIKKHQIMLKGIGGEPMKNAYKAMNADTEGAKELDELLREASLQYIPQLQEFLDTHPNLTEEQKRSIVNKMKMLNKKYNSKEISSTPKKRSSKKDPETAFSLFCRTKNDKYRDLSDEEREIKLQKKFEKLPAAQKDIYESLAISM”, the “soluble on expression in E. coli” value is listed as “soluble”.
Turning to “MHHHHHHSSGVDLGTENLYFQSMRPFLIGVSGGTASGKSTVCEKIMELLGQNEVEQRQRKVVILSQDRFYKVLTAEQKAKALKGQYNFDHPDAFDNDLMHRTLKNIVEGKTVEVPTYDFVTHSRLPETTVVYPADVVLFEGILVFYSQEIRDMFHLRLFVDTDSDVRLSRRVLRDVRRGRDLEQILTQYTTFVKPAFEEFCLPTKKYADVIIPRGVDNMVAINLIVQHIQDILNGDICKWHRGGS”, the “soluble on expression in E. coli” value is “soluble”.
For the sequence “MGSDKIHHHHHHMLEGEFLSVAELKDLTLSLASKFLNNLLASKLLVSKQLFIDRKKELGLLEERLKSGKAQFIVIYGRRRVGKTALILEFLRRHGGLYLLARETSEIENLERFSLRLAEYFNDSFLKKNPLRSLDAFFEYLSTKAEKPFIIAIDEFPYLVKGNKALPSILQEYWEMKLSKKKIFLIVSGSSVSMTERLLGYKSPLYGRRTAQLKLKPLDFFNAREFLPKYSLEDFVRVYGILGGTPAYLLEFSDEKSLEENLKSYFRVDSLLYGDALFILREELDEPRNYFAIMEAIARGNTTLGEIVNETGLERATVGKYLSVLIDLDLVRREVPITASRKSRKGRYYIADNYFAFWFRYVYPNADLIESGNGELLVDTVMDDIDHYTGEVFEGVAKEFLLRLNKSERLPFRFSRVGRWWYKNEEIDLVALNEREKKVLFIEVKWKDLSKREARGILKDLKRKAKLVGLDEWGKHYGLVAKSVRGKDEIKEEGWLAWDLEDIHRMAF”, the “soluble on expression in E. coli” value is recorded as “not soluble”.
Then “AWPEGQALGPGMPLPEPSEQEGESVKAGQEPSPKPGTDVIPAAPRKPREFSKLVLLTASDQDEDGVGSKPQEVHCVLSLEMAGPATLASTLQILPVEEQGGVVQPALEMPEQKCSKLDAAPQSLEFLRTPFGGRLLVLESFLYKQEKAVGDKVYWKCRQHAELGCRGRAITRGLRATVMRGHCHAPDEQGLEARRQREKLPSLALPEGLGEPQGPEGPGGRVEEPLEGVGPWQCPEEPEPTPGLVLSKPALEEEEAPRALSLLSLPPKKRSILGLGQARPLEFLRTCYGGSFLVHESFLYKREKAVGDKVYWTCRDHALHGCRSRAITQGQRVTVMRGHCHQPDMEGLEARRQQEKAVETLQAGQDGPGSQVDTLLRGVDSLLYRRGPGPLTLTRPRPRKRAKVEDQELPTQPEAPDEHQDMDADPGGPEFLKTPLGGSFLVYESFLYRREKAAGEKVYWTCRDQARMGCRSRAITQGRRVTVMRGHCHPPDLGGLEALRQREKRPNTAQRGSPGGPEFLKTPLGGSFLVYESFLYRREKAAGEKVYWTCRDQARMGCRSRAITQGRRVMVMRRHCHPPDLGGLEALRQREHFPNLAQWDSPDPLRPLEFLRTSLGGRFLVHESFLYRKEKAAGEKVYWMCRDQARLGCRSRAITQGHRIMVMRSHCHQPDLAGLEALRQRERLPTTAQQEDPEKIQVQLCFKTCSPESQQIYGDIKDVRLDGESQ”, with “soluble”; and “MIEIESLSRKWKNFSLDNLSLKVESGEYFVILGPTGAGKTLFLELIAGFHVPDSGRILLDGKDVTDLSPEKHDIAFVYQNYSLFPHMNVKKNLEFGMRMKKIKDPKRVLDTARDLKIEHLLDRNPLTLSGGEQQRVALARALVTNPKILLLDEPLSALDPRTQENAREMLSVLHKKNKLTVLHITHDQTEARIMADRIAVVMDGKLIQVGKPEEIFEKPVEGRVASFVGFENVLKGRVISAEQGLLRIRVGEVVIDAAGDMEVGDQVYAFLRPENIALSKSSTQSSIRNSLQGRVTEAWVLGALVRVKVDCGVPLNVLITRRSAEEMELSPGVQIYARFKASSVHVLR”, with “soluble”.
Regarding “MGSDKIHHHHHHMKVLVAMDEFHGIISSYQANRYVEEAVASQIETADVVQVPLFNGRHELLDSVFLWQSGQKYRIPVHDADMNEVEGVYGQTDTGMTVIEGNLFLKGKKPIVERTSYGLGEMIKHALDNDAKHVVISLGGIDSFDAGAGMLQALGAQFYDDEGRVVDMRQGAGVIKYIRRMDMSNLHPKMETARIQVMSDFSSRLYGKQSEIMQTYDAHQLNHNQAAEIDNLIWYFSELFKSELKIAIGPVERGGAGGGIAAVLNGLYQAEILTSHALVDQLTHLENLVEQADLIIFGEGLNENDQLLETTTLRIAELCHKHQKVAIAICATAEKFDLFESQGVTAMFNTFIDMPETYTDFKMGLQIRHYTVQSLKLLKTHFNVEV”, the “soluble on expression in E. coli” value was “not soluble”.
Regarding “MSIILYTANDGTAQFALQEFGGQLWLTQADMAELYQTTKQNISKHIKTILAEQELEEKATVNFQLTVQNENGRKVNRKIAHYSLPMIIAVGYRVRSARGIQFRQWATERLDEYLTKGFAIDDERLKGTGGGDYWKELLNRIRDIRSSEKALYRQVLDLYATSQDYNPKSSESQTFFAAVQNKLHYAASRQTAAELIYSRADSSKDFMGLTTFQGAIPTLNEAKIAKNYLTEDELFRLNRLVSAFFDLAEIKAQEQSPMYMRDWIAELDKFSGLYGQGTLQGAGSISRKQAEQKAEREYRAYEARILSPVEQAYLESVKALEKTAVQQIKQKKDRTK”, the “soluble on expression in E. coli” value is given as “not soluble”.
Then “MGSDKIHHHHHHMKISPLCPSCLLGRVYYEAKLVTDDEDLISQCVDESLKILAENYSSAPINAHLATRIHRRVYEILGVEDPYAEVKARANEVARQVLPLAKEIVEGSDDPFKTAVIVSIVGNNFDYGVQGHKVVEEEFRDFLKRKVQEGLKINDTERIKELSSGKVVYLTDNAGEIFFDTLLMKEIKRRCEKLTAVVRGRPIISDATIEDARLARVDKIADELLTNGKGAIGIIMDELPDETRKALEEADLIVAKGMANYECLSDGSLKPIAFLLTAKCEPVARDIGVNVGDMVAKVVE”, with “not soluble”; and “MGYCIIIPAYNAARTLPAVVREVLGLGMPCLVVDDGSTDGTSATVEGLGVHLLRHDGNRGKGAALRTGFEWALAHGYSGVVTLDADGQHDPTAIPLLAATARERNVDILIASRDTQFREMAGLRSVWNRFGVWCMRKRTGFTITDSQSGFRWYSARLLKGVSLEASGYHLEMEILMKAWRGGFAIDSLPVAARVADGRATSHFRPVRDTWNICMTFLRHMLEHHHHHH”, with “soluble”.
As for “DAGGGVGKELVDLKIIWNKTKHDVKVPLDSTGSELKQKIHSITGLPPAMQKVMYKGLVPEDKTLREIKVTSGAKIMVVGSTI”, the “soluble on expression in E. coli” value is recorded as “soluble”.
As to “MTTTEVKMFTFNSVAENTYILYDSTGEAALIDCGCMDGSEEQQLLRFVQEQQLTVKLLLNTHLHFDHAWGNGFAAKTFGLPVLTHRAEVEEMPSPSKQLAAFGMFGTMDEPPIQYIAPGDVLQLGESIIKVLFVPGHSPGHLAFYCPQAQAVFTGDALFAGDMGRTDLWGGSYELLKKSIRTELLPLPDDTVVYPGHGPTSTIAYERTNNPFLD”, the “soluble on expression in E. coli” value is recorded as “not soluble”.
For the sequence “MGSDKIHHHHHHMSQKIAYQRLEDILKKGSRIALYARYSTGKQDENAQIHSVRNFLSDYGCELLDDNIYIDPKTSAVKVPMDQRKDLQRLIKDSKENKFDCIVSYKNDRIARNTQEHNELRTEMQRLGMPVVLSSTREIYTVGEIVPLTIKDALTQIEPLLIAERTRDTFSSKIENGEWTGGQAPYGYIYDKETELFEITDKKVEVVQEIFRLFKLGYGLQQIANKLIADRRDIGQKWYKDKIKYIITNPFYAGHMTMNRYVKGKLQLKMETWTWSKKQESIPAIMSRDEWEYCFYLYVERRKSQTVRKSSTPFWLRDILHCNECQLPFKTKNQKTKSKRKNGEKVEYGKILYECRNCGLKLETEKIHDKFKEDVGRVLKKLLEKHRENLIQQTQLQIEKEHEEITNVQKELANKRIKLIENIDVLDKKISQLYKDITTGKGLKANHTEDVLGKEDEQDDWNSKLVEILLTGRSQKHNDLEEIKQQQQLLEDKQESLNIVMNALKNQYQDELLNFSFDPENEKSMRNFLLQFVKAVYVSRDMRLDYKIYENLISE”, the “soluble on expression in E. coli” value was “not soluble”.
Then “MGSDKIHHHHHHMGQRIPVTLGNIAPLSLRPFQPGRIALVCEGGGQRGIFTAGVLDEFMRAQFNPFDLYLGTSAGAQNLSAFICNQPGYARKVIMRYTTKREFFDPLRFVRGGNLIDLDWLVEATASQMPLQMDTAARLFDSGKSFYMCACRQDDYAPNYFLPTKQNWLDVIRASSAIPGFYRSGVSLEGINYLDGGISDAIPVKEAARQGAKTLVVIRTVPSQMYYTPQWFKRMERWLGDSSLQPLVNLVQHHETSYRDIQQFIEKPPGKLRISEIYPPKPLHSIALGSRIPALREDYKLGRLCGRYFLATVGKLLTEKAPLTRHLVPVVTPESIVIPPAPVANDTLVAEVSDAPQANDPTFNNEDLA”, with “not soluble”.
Turning to “MYTLNWQPPYDWSWMLGFLAARAVSSVETVADSYYARSLAVGEYRGVVTAIPDIARHTLHINLSAGLEPVAAECLAKMSRLFDLQCNPQIVNGALGRLGAARPGLRLPGCVDAFEQGVRAILGQLVSVAMAAKLTARVAQLYGERLDDFPEYICFPTPQRLAAADPQALKALGMPLKRAEALIHLANAALEGTLPMTIPGDVEQAMKTLQTFPGIGRWTANYFALRGWQAKDVFLPDDYLIKQRFPGMTPAQIRRYAERWKPWRSYALLHIWYTEGWQPDEA”, the “soluble on expression in E. coli” value is on record as “soluble”.
Then “MSLTEQRAVIAIYLRLSRESDDSTSLETQRSFAHRWLLAHGYDPADAVEYIDASVSGAKPLEARKGMAALMAARPTVVVAWKLDRFARSVSDFLRLVAWAEAHGASIATTDNAIDTTTATGRMVATVLAALAEWERNAIASRITDGHATRRSQGRWSSGRPPFGYRIERRDGAAYLAIDDDQAAKIRKAVAALVNGSTVAATARLTGLSEPQWRRLLKSPTLRGQRAHKGELVCEVDGITPVKFAEPILSAAELLKVRERMLALATGQDRAPRRATPMCSGMAFCHRCAGKLNGGTSDKGVPLYRCKAGHVTIYAETLDSRVESEFLTTFGSYAETVIRLEGGNDLSAELLEAKEQAERLAARMATAGPLMLGTLESLAQDLEDTHARLRAAHDPDVREVQVATGRTMAQAWEMYDVPDRSRLLAGMGLRVSLHPRQLADRLTITWGPTPEEAPEAEWDGLALSEAEGHHHHHH”, with “not soluble”; and “SSQVPDVMVVGEPTLMGGEFGDEDERLITRLENTQFDAANGIDDEGGSGGHMGSGGTPEIPMCAGCDQHILDRFILKALDRHWHSKCLKCSDCHVPLAERCFSRGESVYCKDDFFKRFGTKCAACQLGIPPTQVVRRAQDFVYHLHCFACVVCKRQLATGDEFYLMEDSRLVCKADYETAKQ”, with “soluble”; and “MKPVKSGLDSISKYLRTKKEVGRRKIGLLVDGPNILRKEFDVNLEEIRDVLKDYGNIKIGRVFLNQYASDKLVEAIENHGLEPIICSSDVDVRLAVEGMELVYNPNIDTLAIVTRDADFKPLLNKANEHGKETIIFGVEPGFSTALKNSADYVILMGKNHMSGYDDEDEEGKPDASERGEYHEEYPEDEYGESMEKT”, with “not soluble”.
For “SDDTLFQLKFTAKQLEKLAKKAEKDSKAEQAKVKKALQQKNVECARVYAENAIRKKNEGVNWLRMASRVDAVASKVQTAVTMKGVTKNMAQVTKALDKALSAMDLQKVSAVMDRFEQQVQNLDVHTSVMEDSVSSATTLTTPQEQVDSLIVQIAEENGLEVLDQLSQLPEGASAVGESSVRSQEDQLSRRLAALRN”, the “soluble on expression in E. coli” value is listed as “soluble”.
